Experimental data: patent publication US20220153854A1 (Ablynx, published 2022)
Where a chain is given by its changes, count along the chain named.

Columns and labels:
human IL-13 [1] = target: T1, human IL-13 (human, UniProt P35225 35-146, limits assumed); assay: cell-based or functional assay
human TRAIL = target: T2, human TRAIL (human, UniProt P50591 114-281, limits assumed); assay: SPR (ProteOn XPR36), cytokine immobilised by amine coupling
T2 construct: also called hTRAIL
Experimental: (§1) Absence of binding to OX40L and IL-13 related human cytokines was assessed via SPR (Proteon XPR36). As IL-13 related cytokine, IL-4 was assessed. As OX40L related targets, human TRAIL, CD30L, CD40L and RANKL were assessed.
(§2) To this end, the cytokines were immobilized on a ProteOn GLC sensor chip at 25 μg/mL for 600 s using amine coupling, with 80 seconds injection of EDC/NHS for activation and a 150-seconds injection of 1 M Ethanolamine HCl for deactivation (ProteOn Amine Coupling Kit. cat. 176-2410). Flow rate during activation and deactivation was set to 30 μl/min, and during ligand injection to 25 μl/min. The pH of the 10 mM acetate immobilization buffer was 6.0 for all cytokines, except for RANKL where the pH was 5.0.
(§3) Next, 1 μM of F027100187 was injected for 2 minutes and allowed to dissociate for 600 s at a flow rate of 45 μL/min. As running buffer PBS (pH7.4)+0.005% Tween 20 was used. As positive controls, 100 nM α-hIL-4, α-hTRAIL, α-hCD30L, α-hCD40L Ab and α-hRANKL VHH (Nanobody®, Nb) were injected. Interaction between F027100187 and the positive controls with the immobilized targets was measured by detection of increases in refractory index which occurs as a result of mass changes on the chip upon binding.

human CD30L = target: T3, human CD30L (human, UniProt P32971 63-234, limits assumed); assay: as above
T3 construct: also called hCD30L
T3 sequence (looked up): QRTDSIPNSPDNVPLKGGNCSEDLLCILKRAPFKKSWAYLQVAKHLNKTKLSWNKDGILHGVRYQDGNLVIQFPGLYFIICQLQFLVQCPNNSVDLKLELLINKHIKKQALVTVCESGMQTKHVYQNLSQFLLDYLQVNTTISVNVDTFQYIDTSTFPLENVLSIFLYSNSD
Experimental: as §1, §2, §3

human CD40L = target: T4, human CD40L (human, UniProt P29965 113-261, limits assumed); assay: as above
T4 construct: also called hCD40L
T4 sequence (looked up): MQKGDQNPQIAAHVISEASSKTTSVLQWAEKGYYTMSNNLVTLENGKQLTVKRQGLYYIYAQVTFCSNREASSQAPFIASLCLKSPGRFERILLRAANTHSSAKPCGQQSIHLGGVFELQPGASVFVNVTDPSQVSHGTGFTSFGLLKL
Experimental: as §1, §2, §3

human RANKL = target: T5, human RANKL (human, UniProt O14788 140-317, limits assumed); assay: as above
T5 construct: also called hRANKL
T5 sequence (looked up): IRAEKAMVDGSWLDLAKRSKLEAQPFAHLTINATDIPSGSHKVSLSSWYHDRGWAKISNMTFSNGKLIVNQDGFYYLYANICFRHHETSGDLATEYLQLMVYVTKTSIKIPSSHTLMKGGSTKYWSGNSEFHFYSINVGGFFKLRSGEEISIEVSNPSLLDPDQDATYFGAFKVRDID
Experimental: as §1, §2, §3

human serum albumin = target: T6, human serum albumin (human, UniProt P02768 25-609); assay: Gyrolab in-solution affinity, 2 h incubation; 95% CI 6.7-8.9 nM
T6 construct: also called HSA; HAS
T6 sequence (P02768 25-609 limits assumed): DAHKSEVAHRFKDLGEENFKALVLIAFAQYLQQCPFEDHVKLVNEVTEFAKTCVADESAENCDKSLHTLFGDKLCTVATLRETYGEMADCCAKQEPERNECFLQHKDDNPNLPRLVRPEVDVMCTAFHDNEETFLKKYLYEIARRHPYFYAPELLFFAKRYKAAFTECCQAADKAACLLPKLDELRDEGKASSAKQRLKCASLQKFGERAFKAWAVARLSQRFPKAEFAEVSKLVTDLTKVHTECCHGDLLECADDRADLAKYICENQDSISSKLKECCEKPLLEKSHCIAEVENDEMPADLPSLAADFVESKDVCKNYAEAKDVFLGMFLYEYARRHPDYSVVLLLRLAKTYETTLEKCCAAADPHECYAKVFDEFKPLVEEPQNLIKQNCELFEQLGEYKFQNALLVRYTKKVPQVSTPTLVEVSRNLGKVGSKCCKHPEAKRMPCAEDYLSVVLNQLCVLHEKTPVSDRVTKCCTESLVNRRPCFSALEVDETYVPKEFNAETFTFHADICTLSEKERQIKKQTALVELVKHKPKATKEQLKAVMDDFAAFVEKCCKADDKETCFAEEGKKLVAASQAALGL
Experimental: (§4) Under receptor-controlled measurements a serial dilution of OX40L (ranging from 1.3 μM-0.031 μM), IL-13 (ranging from 0.1 μM-0.25 fM), or serum albumin (ranging from 100 μM-3.2 μM) and a fixed amount of ISVD construct F027100187 (5 nM in case of OX40L, […] in case of IL-13 and 30 nM in case of HSA and cyno SA) were mixed to allow interaction and incubated for either 24 or 48 hours (in case of OX40L and IL-13) or 2 hours (in case of serum albumin) to reach equilibrium.
(§5) Biotinylated human OX40L/IL-13/serum albumin was captured in the microstructures of a Gyrolab Bioaffy 1000 CD, which contains columns of beads and was used as a molecular probe to capture free F027100187 from the equilibrated solution. The mixture of OX40L/IL13/serum albumin and F027100187 (containing free OX40UIL-13/serum albumin, free F027100187 and OX40L/IL13/serum albumin—F027100187 complexes) was allowed to flow through the beads, and a small percentage of free F027100187 was captured, which is proportional to the free ISVD construct concentration. A fluorescently labeled anti-ISVD antibody, ABH0086-Alexa647, was then injected to label any captured F027100187 and after rinsing away excess of fluorescent probe, the change in fluorescence was determined. Fitting of the dilution series was done using Gyrolab Analysis software, where KD- and receptor-controlled curves were analyzed to determine the KD value.

cyno OX40L [2] = target: T7, cyno OX40L (cynomolgus monkey, UniProt G7NVH7 51-183); assay: Gyrolab in-solution affinity, 24 h incubation; 95% CI 174-218 pM
T7 construct: also called cyOX40L; cynomolgus monkey OX40L
T7 sequence: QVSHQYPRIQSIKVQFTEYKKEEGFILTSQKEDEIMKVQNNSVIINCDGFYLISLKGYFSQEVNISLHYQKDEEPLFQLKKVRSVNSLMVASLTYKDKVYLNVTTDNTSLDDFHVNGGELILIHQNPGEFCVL
Experimental: as §4, §5

cyno OX40L [3] = target: T7, cyno OX40L; assay: Gyrolab in-solution affinity, 48 h incubation; 95% CI 225-326 pM
Experimental: as §4, §5

human IL-13 [4] = target: T1, human IL-13; assay: Gyrolab in-solution affinity, 48 h incubation; 95% CI 3.4-7.1 pM
Experimental: as §4, §5

rhesus IL-13 = target: T8, rhesus IL-13 (rhesus monkey, UniProt Q864V6 19-132, limits assumed); assay: Gyrolab in-solution affinity, 48 h incubation; 95% CI 6.3-49.5 pM
T8 construct: also called rhesus monkey IL-13
T8 sequence (Q864V6 19-132 limits assumed): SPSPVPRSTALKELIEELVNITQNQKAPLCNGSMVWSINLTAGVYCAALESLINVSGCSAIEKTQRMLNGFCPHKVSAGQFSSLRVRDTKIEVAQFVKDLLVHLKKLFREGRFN
Experimental: as §4, §5

human OX40L = target: T9, human OX40L (human, UniProt P23510 51-183); assay: Gyrolab in-solution affinity, 24 h incubation; 95% CI 64.7-91.0 pM
T9 construct: Protein in solution or immobilised (SPR, Gyrolab); construct not described; also called huOX40L; hOX40L
T9 sequence (looked up): T7 sequence with Q5R, E23K
Experimental: as §4, §5

T1 sequence (P35225 35-146 limits assumed): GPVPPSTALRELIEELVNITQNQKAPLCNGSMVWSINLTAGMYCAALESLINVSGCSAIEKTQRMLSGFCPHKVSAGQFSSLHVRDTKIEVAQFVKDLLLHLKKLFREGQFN
T2 sequence (P50591 114-281 limits assumed): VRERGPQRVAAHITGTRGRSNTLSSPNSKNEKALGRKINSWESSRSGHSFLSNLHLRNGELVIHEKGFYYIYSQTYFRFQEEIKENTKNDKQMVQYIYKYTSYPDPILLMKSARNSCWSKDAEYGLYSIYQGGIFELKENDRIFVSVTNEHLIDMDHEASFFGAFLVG

CCL26 IC50 (pM), triculture assay (human IL-13 [1]): 40.7 pM
binding result (human TRAIL): no binding (tested: 1 µM)
binding result (human CD30L): no binding (tested: 1 µM)
binding result (human CD40L): no binding (tested: 1 µM)
binding result (human RANKL): no binding (tested: 1 µM)
Kd (human serum albumin): 7.8 nM
Kd (cyno OX40L [2]): 0.196 nM
Kd (cyno OX40L [3]): 0.275 nM
Kd (human IL-13 [4]): 0.0053 nM
Kd (rhesus IL-13): 0.0141 nM
Kd (human OX40L): 0.0778 nM
B1: ISVD construct F027100187 (other)
chain: DVQLVESGGGVVQPGGSLRLSCAASRSIGRYDRMGWYRHRPGEPRELVATITGGSSINYGDSVKGRFTISIDNSKNTVYLQMNSLRPEDTALYYCNFNKYQISRDTWGQGTLVTVSSGGGGSGGGSEVQLVESGGGVVQPGGSLRLSCAASGRTFSSYRMGWFRQAPGKEREFVAALSGDGYSTYTANSVKGRFTISRDNSKNTVYLQMNSLRPEDTALYYCAAKLQYVSGWSYDYPYWGQGTLVTVSSGGGGSGGGSEVQLVESGGGVVQPGGSLRLSCAASGFTFRSFGMSWVRQAPGKGPEWVSSISGSGSDTLYADSVKGRFTISRDNSKNTLYLQMNSLRPEDTALYYCTIGGSLSRSSQGTLVTVSSGGGGSGGGSEVQLVESGGGVVQPGGSLRLSCAASGFTFNNYAMKWVRQAPGKGLEWVSSITTGGGSTDYADSVKGRFTISRDNSKNTLYLQMNSLRPEDTALYYCANVPFGYYSEHFSGLSFDYRGQGTLVTVSSA
notes: Tetravalent, trispecific single-chain construct of four VHH (ISVD) domains: one against OX40L, two against IL-13, one against serum albumin; also called F0271000187; F27100187
